B1: BCL2L13 (parent)
chain: MASSSTVPLGFHYETKYVVLSYLG

Variants of: B1
Test: protein stability index of a GFP-peptide fusion (GPS, HEK-293T) (PSI 1-6); higher = more stable
Settings: c terminus: a fixed tail appended
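Further: lentivirally expressed fusions sorted by FACS into six bins by GFP to DsRed ratio, PSI derived from sequencing read proportions per bin multiplied by bin number.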

Variant	protein stability index
MASSSTVPLGFHTETKYVVLSYLG [Y13T]	2.28
MASSSTVPLGFHQETKYVVLSYLG [Y13Q]	1.39
MASSSTVPLGFHSETKYVVLSYLG [Y13S]	2.07
MASSSTVPLGFHVETKYVVLSYLG [Y13V]	2.51
MASSSTVPLGFHAETKYVVLSYLG [Y13A]	2.82
MASSSTVPLGFHDETKYVVLSYLG [Y13D]	2.35
MASSSTVPLGFHKETKYVVLSYLG [Y13K]	1.44
MASSSTVPLGFHEETKYVVLSYLG [Y13E]	1.59
MASSSTVPLGFHNETKYVVLSYLG [Y13N]	1.7
MASSSTVPLGFHGETKYVVLSYLG [Y13G]	2.14
MASSSTVPLGFHPETKYVVLSYLG [Y13P]	1.84
MASSSTVPLGFHIETKYVVLSYLG [Y13I]	2.65
MASSSTVPLGFHLETKYVVLSYLG [Y13L]	2.59
MASSSTVPLGFHMETKYVVLSYLG [Y13M]	2.14
MASSSTVPLGFHWETKYVVLSYLG [Y13W]	2.16
MASSSTVPLGFHFETKYVVLSYLG [Y13F]	3.43
MASSSTVPLGFHCETKYVVLSYLG [Y13C]	2.25
MASSSTVPLGFHRETKYVVLSYLG [Y13R]	1.85
MASSSTVPLGFHHETKYVVLSYLG [Y13H]	2.27
MASSSTRPLGFHYETKYVVLSYLG [V7R]	2.33
MASSSTYPLGFHYETKYVVLSYLG [V7Y]	3.3
MASSSTWPLGFHYETKYVVLSYLG [V7W]	2.36
MASSSTPPLGFHYETKYVVLSYLG [V7P]	2.14
MASSSTNPLGFHYETKYVVLSYLG [V7N]	3.19

Variant	protein stability index
MASSSTDPLGFHYETKYVVLSYLG [V7D]	3.29
MASSSTFPLGFHYETKYVVLSYLG [V7F]	2.17
MASSSTCPLGFHYETKYVVLSYLG [V7C]	3.72
MASSSTSPLGFHYETKYVVLSYLG [V7S]	3.11
MASSSTGPLGFHYETKYVVLSYLG [V7G]	2.08
MASSSTIPLGFHYETKYVVLSYLG [V7I]	2.72
MASSSTKPLGFHYETKYVVLSYLG [V7K]	2.84
MASSSTTPLGFHYETKYVVLSYLG [V7T]	2.36
MASSSTEPLGFHYETKYVVLSYLG [V7E]	3.31
MASSSTMPLGFHYETKYVVLSYLG [V7M]	2.35
MASSSTHPLGFHYETKYVVLSYLG [V7H]	2.67
MASSSTLPLGFHYETKYVVLSYLG [V7L]	3.03
MASSSTAPLGFHYETKYVVLSYLG [V7A]	2.78
MASSSTVPKGFHYETKYVVLSYLG [L9K]	2.57
MASSSTVPEGFHYETKYVVLSYLG [L9E]	2.33
MASSSTVPIGFHYETKYVVLSYLG [L9I]	3.14
MASSSTVPPGFHYETKYVVLSYLG [L9P]	2.1
MASSSTVPWGFHYETKYVVLSYLG [L9W]	3.66
MASSSTVPDGFHYETKYVVLSYLG [L9D]	2.32
MASSSTVPAGFHYETKYVVLSYLG [L9A]	2
MASSSTVPFGFHYETKYVVLSYLG [L9F]	1.33
MASSSTVPRGFHYETKYVVLSYLG [L9R]	1.79
MASSSTVPQGFHYETKYVVLSYLG [L9Q]	2.62
MASSSTVPGGFHYETKYVVLSYLG [L9G]	2.75

Variant	protein stability index
MASSSTVPMGFHYETKYVVLSYLG [L9M]	2.35
MASSSTVPYGFHYETKYVVLSYLG [L9Y]	2.57
MASSSTVPVGFHYETKYVVLSYLG [L9V]	2.06
MASSSTVPNGFHYETKYVVLSYLG [L9N]	3.25
MASSSTVPHGFHYETKYVVLSYLG [L9H]	2.31
MASSSTVPCGFHYETKYVVLSYLG [L9C]	3.98
MASSSTVPTGFHYETKYVVLSYLG [L9T]	2.45
MASSSTVPSGFHYETKYVVLSYLG [L9S]	3.42
MASSSTVPLGFHYFTKYVVLSYLG [E14F]	1.81
MASSSTVPLGFHYDTKYVVLSYLG [E14D]	2.67
MASSSTVPLGFHYNTKYVVLSYLG [E14N]	2.48
MASSSTVPLGFHYMTKYVVLSYLG [E14M]	3.1
MASSSTVPLGFHYSTKYVVLSYLG [E14S]	2.62
MASSSTVPLGFHYATKYVVLSYLG [E14A]	2.21
MASSSTVPLGFHYKTKYVVLSYLG [E14K]	2.72
MASSSTVPLGFHYGTKYVVLSYLG [E14G]	2.09
MASSSTVPLGFHYTTKYVVLSYLG [E14T]	2.3
MASSSTVPLGFHYYTKYVVLSYLG [E14Y]	2.64
MASSSTVPLGFHYWTKYVVLSYLG [E14W]	3.62
MASSSTVPLGFHYQTKYVVLSYLG [E14Q]	3.35
MASSSTVPLGFHYVTKYVVLSYLG [E14V]	2.46
MASSSTVPLGFHYHTKYVVLSYLG [E14H]	1.75
MASSSTVPLGFHYRTKYVVLSYLG [E14R]	2.14
MASSSTVPLGFHYITKYVVLSYLG [E14I]	2.82

Variant	protein stability index
MASSSTVPLGFHYPTKYVVLSYLG [E14P]	2.24
MASSSTVPLIFHYETKYVVLSYLG [G10I]	1.73
MASSSTVPLAFHYETKYVVLSYLG [G10A]	2.01
MASSSTVPLMFHYETKYVVLSYLG [G10M]	2.73
MASSSTVPLHFHYETKYVVLSYLG [G10H]	3.03
MASSSTVPLYFHYETKYVVLSYLG [G10Y]	4.41
MASSSTVPLSFHYETKYVVLSYLG [G10S]	2.77
MASSSTVPLDFHYETKYVVLSYLG [G10D]	2.02
MASSSTVPLCFHYETKYVVLSYLG [G10C]	2.1
MASSSTVPLWFHYETKYVVLSYLG [G10W]	2.57
MASSSTVPLFFHYETKYVVLSYLG [G10F]	2.22
MASSSTVPLVFHYETKYVVLSYLG [G10V]	2.14
MASSSTVPLNFHYETKYVVLSYLG [G10N]	2.93
MASSSTVPLQFHYETKYVVLSYLG [G10Q]	1.69
MASSSTVPLEFHYETKYVVLSYLG [G10E]	2.13
MASSSTVPLRFHYETKYVVLSYLG [G10R]	3.6
MASSSTVPLKFHYETKYVVLSYLG [G10K]	3.29
MASSSTVPLLFHYETKYVVLSYLG [G10L]	2.52
MASSSTVPLTFHYETKYVVLSYLG [G10T]	3.54
MASSSTVWLGFHYETKYVVLSYLG [P8W]	3.73
MASSSTVHLGFHYETKYVVLSYLG [P8H]	2.22
MASSSTVYLGFHYETKYVVLSYLG [P8Y]	3.53
